According to article PMC11272584 (Nature Metabolism, 2024):
Numbering of substitutions follows the chain as printed.

Columns and labels:
GIPR R12Q (human) = GIPR R12Q (human) (UniProt P48546)
GIPR E354Q (human) = target: T1, GIPR E354Q (human) (UniProt P48546)
T1 sequence: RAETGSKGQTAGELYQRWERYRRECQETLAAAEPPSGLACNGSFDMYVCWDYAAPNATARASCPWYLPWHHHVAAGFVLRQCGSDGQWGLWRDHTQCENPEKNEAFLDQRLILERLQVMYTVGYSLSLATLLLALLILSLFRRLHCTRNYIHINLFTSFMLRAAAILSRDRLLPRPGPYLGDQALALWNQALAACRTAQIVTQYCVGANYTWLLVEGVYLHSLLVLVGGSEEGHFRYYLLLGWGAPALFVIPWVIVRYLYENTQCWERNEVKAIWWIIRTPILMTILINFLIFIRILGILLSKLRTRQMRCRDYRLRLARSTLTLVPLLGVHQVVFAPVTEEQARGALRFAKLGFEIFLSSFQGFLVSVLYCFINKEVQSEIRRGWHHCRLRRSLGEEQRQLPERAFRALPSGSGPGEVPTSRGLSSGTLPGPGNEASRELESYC

GIPR S415I (human) = target: T2, GIPR S415I (human) (UniProt P48546)
T2 sequence: T1 sequence with Q333E, S394I

GIPR R190Q (human) = target: T3, GIPR R190Q (human) (UniProt P48546)
T3 sequence: T1 sequence with R169Q, Q333E

GIPR R38L (human) = target: T4, GIPR R38L (human) (UniProt P48546)
T4 sequence: T1 sequence with R17L, Q333E

GIPR A185V (human) = target: T5, GIPR A185V (human) (UniProt P48546)
T5 sequence: T1 sequence with A164V, Q333E

GIPR A294V (human) = target: T6, GIPR A294V (human) (UniProt P48546)
T6 sequence: T1 sequence with A273V, Q333E

β-arrestin 2 recruitment (BRET) on stimulation with GIP(1-42): logEC50 (Arrestin) (log M (inferred)) (GIPR R12Q (human)): -8.72
β-arrestin 2 recruitment (BRET) on stimulation with GIP(1-42): logEC50 (Arrestin) (log M (inferred)) (GIPR E354Q (human)): -8.52
β-arrestin 2 recruitment (BRET) on stimulation with GIP(1-42): logEC50 (Arrestin) (log M (inferred)) (GIPR S415I (human)): -9.12
β-arrestin 2 recruitment (BRET) on stimulation with GIP(1-42): logEC50 (Arrestin) (log M (inferred)) (GIPR R190Q (human)): -8.86
β-arrestin 2 recruitment (BRET) on stimulation with GIP(1-42): logEC50 (Arrestin) (log M (inferred)) (GIPR R38L (human)): -9
β-arrestin 2 recruitment (BRET) on stimulation with GIP(1-42): logEC50 (Arrestin) (log M (inferred)) (GIPR A185V (human)): -8.96
β-arrestin 2 recruitment (BRET) on stimulation with GIP(1-42): logEC50 (Arrestin) (log M (inferred)) (GIPR A294V (human)): -9.01
Substance: β-arrestin 2 (Rluc8-Arrestin-3-Sp1) (from UniProt P32121 1-409) (natural protein)
